Measured values taken from US20230312721A1 (published 2023).
Substitutions are numbered along the chain they refer to. Blank lines part the entries; values can stand above or below the binder they belong to.

Target: T1, 4Ig human B7-H3 (human, UniProt Q5ZPR3 29-466, limits assumed)
T1 construct: Soluble analyte in SPR; also called 4Ig-B7H3; 4Ig B7H3
T1 sequence: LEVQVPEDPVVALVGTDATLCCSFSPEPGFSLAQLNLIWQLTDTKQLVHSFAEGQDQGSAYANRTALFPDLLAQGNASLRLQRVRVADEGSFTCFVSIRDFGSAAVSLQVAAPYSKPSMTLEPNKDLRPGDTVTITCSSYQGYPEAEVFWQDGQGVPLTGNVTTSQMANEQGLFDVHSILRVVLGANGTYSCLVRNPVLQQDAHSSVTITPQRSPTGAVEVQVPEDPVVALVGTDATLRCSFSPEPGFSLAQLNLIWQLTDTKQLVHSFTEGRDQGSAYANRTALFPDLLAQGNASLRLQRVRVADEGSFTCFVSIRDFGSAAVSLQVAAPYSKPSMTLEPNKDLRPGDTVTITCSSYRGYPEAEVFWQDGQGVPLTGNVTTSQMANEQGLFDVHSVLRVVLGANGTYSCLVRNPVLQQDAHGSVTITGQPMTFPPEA
Assay: SPR, Carterra LSA; antibody captured on anti-human Fc lawn, 4Ig human B7-H3 as analyte
Protocol: Chimeric and humanized antibodies were generated using CDR grafting methods using closely homologous human germline sequences. Six different humanized VH and four humanized VL sequences were combined to generate 24 different humanized IgG1 antibodies. The antibodies were expressed in HEK293 cells and purified using Protein A resin. Antibodies were buffer exchanged into PBS and quantified by OD280 and titer was calculated. Sample purity and aggregation status was determined by analytical Size Exclusion Chromatography (SEC-HPLC), which separates molecules based on molecular mass and hydrodynamic volume. Area % of each peak is calculated based on total area of the peaks. Peak symmetry is calculated to determine the peak fronting (<1) or tailing (>1). A column of 300A pore size was used for detection at 280 nm and PBS as the running buffer. Surface plasmon resonance studies to assess binding affinities were carried out on a Carterra LSA instrument. An anti-human Fc antibody “lawn” was prepared on a HC30M chip by amine coupling. The chip was activated with equal volume of 100 mM MES pH 5.5, 100 mM S-NHS and 400 mM EDC. The anti-human IgG Fc antibody was immobilized. The chip was deactivated with 1 M ethanolamine pH 8.5. Antibodies were diluted and printed onto the anti-human Fc lawn. An 8-point series of 4Ig human B7-H3 was prepared.
The characterization data, including expression titers (mg of purified protein per L of culture), purity (% monomer peak by analytical SEC-HPLC) and affinity measurement by SPR (ka, kd and KD) are summarized in Table 1 and FIG. 1-4.

B1: L3H5 (antibody, human IgG1, kappa, V domains shown)
VH: QVQLVQSGAEVKKPGASVKVSCKASGYTFTNYDINWVRQATGQGLEWMGWIFPGDGSTQYNEKFQGRVTMTTNTSISTAYMELSSLRSEDTAVYYCARQTTATWFAYWGQGTLVTVSS
VL: EIVMTQSPDFQSVTPKEKVTLTCRASQSISDYLHWYQQKPDQSPKLLIKYASQSISGVPSRFSGSGSGSDFTLTINSLEAEDAGVYYCQNGHSFPLTFGQGTKLEIKR
notes: Humanized IgG1, HEK293; chains tied by the L/H names; also called YB8 L3 + YB8 H5
Kd: 9.2 nM
koff: 0.00035 s⁻¹
kon: 38000 M⁻¹ s⁻¹

B2: L4H3 (antibody, human IgG1, kappa, V domains shown)
VH: B1 VH with Q65K, M70L, T72R, Y95F
VL: B1 VL with V58I, S69T, L78V
notes: Humanized IgG1, HEK293; chains tied by the L/H names; also called YB8 L4 + YB8 H3
Kd: 13 nM
koff: 0.00039 s⁻¹
kon: 31000 M⁻¹ s⁻¹

B5: L4H2 (antibody, human IgG1, kappa, V domains shown)
VH: B1 VH with V5Q, M48I, Q65K, V68A, M70L, T72R
VL: B1 VL with V58I, S69T, L78V
notes: Humanized IgG1, HEK293; chains tied by the L/H names; also called YB8 L4 + YB8 H2
Kd: 11 nM
koff: 0.00039 s⁻¹
kon: 36000 M⁻¹ s⁻¹

B6: L3H6 (antibody, human IgG1, kappa, V domains shown)
VH: B1 VH with V5Q, V20L, M48I, N61A, E62Q, V68A, M70L, Y95F
VL: B1 VL
notes: Humanized IgG1, HEK293; chains tied by the L/H names; also called YB8 L3 + YB8 H6
Kd: 20 nM
koff: 0.0005 s⁻¹
kon: 25000 M⁻¹ s⁻¹

B8: L4H1 (antibody, human IgG1, kappa, V domains shown)
VH: B1 VH with M48I, M70L
VL: B1 VL with V58I, S69T, L78V
notes: Humanized IgG1, HEK293; chains tied by the L/H names; also called YB8 L4 + YB8 H1
Kd: 23 nM
koff: 0.00055 s⁻¹
kon: 24000 M⁻¹ s⁻¹

The remaining lines, values ahead:

Kd: 11 nM
koff: 0.00036 s⁻¹
kon: 34000 M⁻¹ s⁻¹
B3: L4H4 (antibody, human IgG1, kappa, V domains shown)
VH: B1 VH with M48I, Y95F
VL: B1 VL with V58I, S69T, L78V
notes: Humanized IgG1, HEK293; chains tied by the L/H names; also called YB8 L4 + YB8 H4

Kd: 9.6 nM
koff: 0.00042 s⁻¹
kon: 43000 M⁻¹ s⁻¹
B4: L4H6 (antibody, human IgG1, kappa, V domains shown)
VH: B1 VH with V5Q, V20L, M48I, N61A, E62Q, V68A, M70L, Y95F
VL: B1 VL with V58I, S69T, L78V
notes: Humanized IgG1, HEK293; chains tied by the L/H names; also called YB8 L4 + YB8 H6

Kd: 9.3 nM
koff: 0.0004 s⁻¹
kon: 43000 M⁻¹ s⁻¹
B7: L4H5 (antibody, human IgG1, kappa, V domains shown)
VH: B1 VH
VL: B1 VL with V58I, S69T, L78V
notes: Humanized IgG1, HEK293; chains tied by the L/H names; also called YB8 L4 + YB8 H5
